# Laboratory results taken from the supplement of paper PMC10724198.
# ± gives the standard deviation of the averaged measurements.
# Tested on: Saccharomyces cerevisiae
# Experiment: protein stability index of tFT-peptide fusion (C-terminal peptide) (PSI (0-1 scale)); higher = more stable (slower turnover)
# Settings: genetic background: wild type; temperature: 30 C
# Description: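 Multiplexed protein stability (MPS) profiling in S. cerevisiae. Random 12-aa peptides (tFT-X12 library) are fused to the C-terminus of a sfGFP-mCherry tandem fluorescent timer, after mCherry and a GGGS linker. Cells are FACS-sorted into 8 mCherry/sfGFP bins and deep-sequenced. The protein stability index (PSI) is the read-weighted bin average, scaled from 0 (unstable) to 1 (stable). Only peptides with >10 reads are reported; cells were grown at 30 °C in SC-His with glucose.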
# 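Further: PSI is a weighted mean of sequencing reads over stability bins, variants kept only with over 10 reads, mCherry proximal and sfGFP distal, peptide attached via GGGS linker.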
row,Sequence,protein stability index
1,ILVSVLRFVRNR,0.691 ± 0.029
2,TPPATFCVPPPH,0.719 ± 0.053
3,KKSKKKSKNIRK,0.694 ± 0.028
4,KAPPDERGTGAQ,0.6273 ± 0.0018
5,PPRSPPPLSPTP,0.583 ± 0.038
6,SLWRLKESYRQS,0.673 ± 0.039
7,AGPGGAPVRWCR,0.723 ± 0.037
8,PLPLPPLPPPLP,0.656 ± 0.021
9,DIWEFYNNLYSS,0.719 ± 0.013
10,KGMVEESIIKRA,0.62084 ± 0.00038
11,VGSGKYGVVGVG,0.518 ± 0.029
12,KGKKRKNEKNKR,0.691 ± 0.0089
13,VGAGGLWCGGGY,0.83 ± 0.031
14,PPPLPASPPPPY,0.683 ± 0.035
15,EAGMGVGRCGTG,0.728 ± 0.01
16,SPLSRSRPKSYL,0.75 ± 0.072
17,FLPQCLGSNFHL,0.725 ± 0.016
18,EKEFLWKAISAV,0.504 ± 0.016
19,TVLPAPYRSLYR,0.714 ± 0.1
20,PRPLLPPPPLLA,0.629 ± 0.083
21,VKIYSSPFFCLI,0.57 ± 0.011
22,PPHPGALPPAAA,0.631 ± 0.035
23,DYSTLFVSVADP,0.667 ± 0.0069
24,NLRGPEYVKRTD,0.677 ± 0.021
25,LPPHAPIPRWKP,0.776 ± 0.17

row,Sequence,protein stability index
1,PSLPPPPPTPPT,0.688 ± 0.047
2,SFRFVLVQCSGV,0.5601 ± 0.0046
3,AYRKQGRGERKG,0.65 ± 0.011
4,KQKKIGNKITNK,0.667 ± 0.008
5,PPPPPPPHPTPT,0.676 ± 0.039
6,YTPALFLPVRPA,0.715 ± 0.06
7,CSCSQYFHLPNV,0.687 ± 0.017
8,KKTTKKKRKKNK,0.657 ± 0.018
9,SGSGGGGMRLGS,0.701 ± 0.026
10,EITRRAQHWKAK,0.708 ± 0.018
11,SEHSTYFSRNCF,0.726 ± 0.032
12,LLPGLVGMLSCM,0.602 ± 0.039
13,LTHLLTSHTNII,0.746 ± 0.081
14,DEDIHQTIGKKG,0.716 ± 0.056
15,KIIRKNILRNEY,0.658 ± 0.018
16,VAGWGAGREAAY,0.657 ± 0.026
17,GVLRICFGGLVS,0.729 ± 0.031
18,APTPPPPPPPLP,0.752 ± 0.011
19,AIRRNVYSCVYG,0.603 ± 0.032
20,VLFDGSWSGSYL,0.741 ± 0.15
21,LLPSPISRNRAL,0.696 ± 0.0081
22,ETEQTSIRRIKQ,0.728 ± 0.012
23,VGGEWGLGVRPR,0.703 ± 0.014
24,CLPCSGWLSWPH,0.664 ± 0.0069
25,TVWCRLKGEGRS,0.737 ± 0.084

row,Sequence,protein stability index
1,VCPGMLVYGRGI,0.744 ± 0.092
2,PPPSPGSSAPPP,0.676 ± 0.037
3,FPLVPPPSSPLF,0.687 ± 0.022
4,KKKELLTKKQKD,0.637 ± 0.021
5,GLARPFVGFPHL,0.7352 ± 0.0028
6,CGAALCSWEVVV,0.627 ± 0.018
7,VGRGGVRRLLQT,0.709 ± 0.037
8,SIVRRVRDRIGR,0.641 ± 0.038
9,SSSCRCSRVIGR,0.589 ± 0.064
10,YQCVQNNKGRSR,0.67 ± 0.024
11,SVTLSVSCPMLR,0.708 ± 0.024
12,ENNKRRTKRHKE,0.62791 ± 0.00025
13,PLYSPPPHRYLL,0.653 ± 0.019
14,PQLFLENHEFCI,0.925 ± 0.051
15,PVLCLRMQVLSK,0.532 ± 0.032
16,CQHPLRPRCLND,0.6724 ± 0.0048
17,STHSRLCATVPP,0.591 ± 0.027
18,VVILGSMHLCSV,0.561 ± 0.016
19,GFKEGRSYWRFY,0.74 ± 0.034
20,APITPNPLYLNH,0.697 ± 0.055
21,LAGRSVVLLWMG,0.602 ± 0.021
22,LWCCVFGLPSRG,0.696 ± 0.072
23,PAPPCPGTSPFP,0.7055 ± 0.001
24,LVVSHDSSLMMR,0.7363 ± 0.0045
25,VQVSGFPHSRTR,0.691 ± 0.023

row,Sequence,protein stability index
1,APPSSYSSPPPS,0.692 ± 0.017
2,RRLNTRQERSNK,0.72 ± 0.032
3,SRTWGDVVSSGT,0.715 ± 0.0099
4,GVRERSCIKKAR,0.604 ± 0.058
5,PLQPRVLPSPRR,0.688 ± 0.0011
6,GAFCGGSSVFYL,0.659 ± 0.01
7,SPSSRTTNTHPA,0.694 ± 0.11
8,PPSSLPRLQCSP,0.674 ± 0.054
9,PSLLSFPFVSLP,0.696 ± 0.05
10,PPPPPPPPRPPS,0.651 ± 0.069
11,VSGWDCEGDWVA,0.76 ± 0.0096
12,VGGLGRGTGSGP,0.683 ± 0.096
13,GNNLCILNERFP,0.763 ± 0.019
14,PRRAARLLPRPL,0.693 ± 0.015
15,GLWSWFLCYEFY,0.657 ± 0.02
16,LKDITVWRPKRG,0.658 ± 0.12
17,MGFARDVYGSVC,0.702 ± 0.022
18,KEREGGSMNGGG,0.692 ± 0.064
19,LPDSHHQTMGVF,0.711 ± 0.055
20,WPLKTMLFGIWV,0.562 ± 0.028
21,RSGCGVVGVWEE,0.668 ± 0.032
22,VITYKKKNTRKQ,0.673 ± 0.093
23,DLLCLWEFPSIP,0.731 ± 0.12
24,GWESERWSTLHK,0.763 ± 0.024
25,VRGKGWRVGWWG,0.668 ± 0.045

row,Sequence,protein stability index
1,KVNWVKAAKKNA,0.626 ± 0.019
2,CIPHVVPYSTGK,0.697 ± 0.014
3,PRPKPSAIPILT,0.597 ± 0.015
4,PLLCPASIHVTL,0.679 ± 0.046
5,KCKRGYSAVREL,0.936 ± 0.09
6,SPLPSSPRSVPP,0.744 ± 0.094
7,PLSPPPLPFPLL,0.589 ± 0.0018
8,SWVDGGVRRCGV,0.662 ± 0.019
9,QQMSLRKNQKVK,0.7 ± 0.066
10,KKKENKNEKKKE,0.692 ± 0.06
11,SVVRKDNKLHTV,0.596 ± 0.035
12,GLFSRGKLIALS,0.571 ± 0.099
13,SGAIDRSAYIDG,0.622 ± 0.028
14,PPRHPPPSPLVA,0.668 ± 0.011
15,FVADRLIFGKSL,0.71 ± 0.044
16,IDFNWESSTMNI,0.7438 ± 0.0058
17,RPLLHPRTGRSH,0.677 ± 0.014
18,PSPMVPHVPMST,0.74579 ± 0.00057
19,FTSGESVCGGRV,0.698 ± 0.0026
20,AASVYAFLPGLY,0.651 ± 0.021
21,PRYCQIKIISHK,0.554 ± 0.14
22,CLTYPSFSLSSS,0.635 ± 0.063
23,PARPLSRPPLPP,0.72 ± 0.052
24,KKNNTKKNRKRK,0.7 ± 0.051
25,IAAVQSGGRVAG,0.462 ± 0.057

row,Sequence,protein stability index
1,GALLLVPFFWGE,0.668 ± 0.018
2,LCTYVMFACFFF,0.641 ± 0.1
3,GVIYFSLSSFPL,0.655 ± 0.14
4,SPRTVCPELHFI,0.691 ± 0.044
5,RAGGSANVLAGE,0.6926 ± 0.0016
6,SSLPASPAPPHL,0.702 ± 0.066
7,VHVLLSGVICAL,0.471 ± 0.061
8,LFFGSNLFLLAL,0.595 ± 0.043
9,SSSRLLALSSLH,0.694 ± 0.053
10,MGGVGGLCGMWA,0.683 ± 0.036
11,VTYFIPVTNRAS,0.605 ± 0.0074
12,PSPPPHPGGTRR,0.652 ± 0.057
13,SMVGCVKTPIEQ,0.659 ± 0.023
14,VMVVVGLQGTMV,0.5962 ± 0.0032
15,VLLSFLHLTASS,0.606 ± 0.03
16,CTCSGELSLRGV,0.684 ± 0.011
17,PHLPPLPPAPPP,0.724 ± 0.12
18,SPVPPSPAPLLI,0.673 ± 0.018
19,SPPCPPPHPHPP,0.597 ± 0.012
20,PPPRPRPSSRSI,0.71 ± 0.016
21,RDPWESLDRCYP,0.698 ± 0.034
22,CSLRDRCAFSFG,0.6982 ± 0.0052
23,NSTTQKKEQKQI,0.711 ± 0.043
24,RFRGYWSWGMTL,0.777 ± 0.13
25,KSGHYVVSYSGV,0.678 ± 0.0045

row,Sequence,protein stability index
1,QHALSAPRTILP,0.654 ± 0.03
2,VWLAGVMVGRFQ,0.5575 ± 0.0039
3,PSWPRRSSPLAI,0.73 ± 0.013
4,DFSPPSPLPLPL,0.721 ± 0.01
5,GACHNVGVGPLG,0.67 ± 0.024
6,PKLSKLLQHSNV,0.658 ± 0.048
7,GSFGFGVTVVFW,0.5563 ± 0.0021
8,KLPRPRHSDCPS,0.6505 ± 0.00069
9,PPRPFTLLPPPP,0.6424 ± 0.0062
10,PFPPPHTPLPPS,0.791 ± 0.016
11,DACRLLGGRRCG,0.717 ± 0.07
12,PLLFPSSPLPPS,0.63 ± 0.036
13,RVMGWWGARVLG,0.697 ± 0.027
14,RLRAFSRSVSSP,0.734 ± 0.11
15,VIGGGRVLGIGG,0.653 ± 0.1
16,SEIKVIMNESKS,0.679 ± 0.009
17,PGTGGHKRASPV,0.6293 ± 0.0016
18,VWFDPHEFIVIA,0.59 ± 0.027
19,ENLVLRDRGRGM,0.692 ± 0.017
20,KKSNEKERATQQ,0.708 ± 0.046
21,PTPSPPLPPITP,0.773 ± 0.024
22,DLPRLGLPRRAC,0.63 ± 0.047
23,SVSPPLPPSSIA,0.673 ± 0.021
24,KKQKSKSAREAS,0.658 ± 0.024
25,PPVSPFPVLQGR,0.652 ± 0.048

row,Sequence,protein stability index
1,VWLWCDLSRGWI,0.733 ± 0.013
2,KKTVKNNQNNTD,0.654 ± 0.041
3,YVTITLGLASPT,0.666 ± 0.026
4,HEEPEVPEIQHV,0.743 ± 0.063
5,QEGGWKRTYDII,0.678 ± 0.046
6,FRPPPTLLLRPH,0.676 ± 0.026
7,PSTLPSHRVPLK,0.68 ± 0.041
8,WGIVGLRGSRVG,0.618 ± 0.018
9,NFRILIKKRGDE,0.643 ± 0.071
10,VSCFVWFGFSCI,0.5202 ± 0.0034
11,PHTPSRPLSPAP,0.713 ± 0.063
12,PPEPPLSSLRRP,0.674 ± 0.073
13,AFSTGSIILEPR,0.646 ± 0.016
14,PPSSPHAPTALP,0.685 ± 0.032
15,RIFFTCDSFLCV,0.611 ± 0.04
16,APPARSSPPPRP,0.686 ± 0.039
17,DQTPRWQRCTRQ,0.733 ± 0.12
18,CSLVIRRRREVG,0.659 ± 0.044
19,FFPLSALFARPS,0.676 ± 0.0073
20,RSLGLGGRGFWG,0.715 ± 0.099
21,REGSIISYPASG,0.6989 ± 0.0019
